Values of other authors in paper PMC4426669.

Molecular target: eIF2B1 (Homo sapiens) (UniProt Q14232)

## eIF2B1 (from UniProt Q14232)
  Kd: < 1 nM
